Results from patent US20200353050A1 (Eli Lilly, published 2020).

Assays:
PD-1 = target: T1, PD-1; experiment: bio-layer interferometry (BLI)
T1 construct: the paragraph before it speaks of human and cynomolgus PD-1; also called programmed cell death protein 1; CD279

cynomologous monkey PD-1 = target: T2, cynomologous monkey PD-1 (cynomologous monkey, UniProt B0LAJ3 25-170); experiment: method not stated in that sentence (BLI in the next one), 25° C
T2 construct: also called cynomolgus PD-1

human PD-1 = target: T3, human PD-1 (human, UniProt Q15116 25-167, limits assumed); experiment: method not stated in that sentence (BLI in the next one), 25° C; 25° C; human PD-1
T3 construct: also called programmed cell death protein 1; CD279
T3 sequence (Q15116 25-167 limits assumed): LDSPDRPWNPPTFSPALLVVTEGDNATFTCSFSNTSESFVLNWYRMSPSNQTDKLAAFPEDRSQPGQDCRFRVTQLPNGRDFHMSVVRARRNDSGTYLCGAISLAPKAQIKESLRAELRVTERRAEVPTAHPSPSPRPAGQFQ

T1 sequence (Q15116 25-170): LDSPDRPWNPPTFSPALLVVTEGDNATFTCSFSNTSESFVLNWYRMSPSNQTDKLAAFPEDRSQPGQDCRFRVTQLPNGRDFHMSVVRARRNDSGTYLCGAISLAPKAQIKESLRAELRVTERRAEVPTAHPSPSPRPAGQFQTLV
T2 sequence (B0LAJ3 entry or part of it limits assumed): as the sequence (Q15116 25-170) above, with D2E, P10A, V19L, T35A, Q75R, T144A counted along it

Kd (PD-1): < 0.001 nM
Kd (cynomologous monkey PD-1): ≤ 0.01 nM
Kd (human PD-1): ≤ 0.01 nM
B1: AM0001 (antibody, human IgG4 S228P, lambda, V domains shown)
VH: EVQLLESGGGLVQPGGSLRLSCPASGFTFSSYAMSWVRQAPGKGLGWVSDISGGGGTTYYADSVKGRFTISRDNSKNTLYLQMNSLRGEDTAVYYCAKSGTVVTDFDYWGQGTLVTVSS
VL: SYVLTQPPSVSVAPGQTARVTCGGNSIGSYSVHWYQQKPGQAPVLVVYDDSDRPSGIPERFSGSNSGNTAALTISRVEAGDEADYYCQVWDTSSYWVFGGGTKLTVLG
notes: Monoclonal antibody with a lambda 2 light chain and a hinge-stabilized IgG4 (S228P) heavy chain; also called PD1-antagonist antibody AM0001; VH-09/VL-09
